{"source": "paper doi:10.1101/2020.03.20.999888", "about": "(bioRxiv, 2020)", "binders": {"B1": {"name": "GspL^peri (domain or fragment)", "chain": "WQLQREGDRYAAQSAELYRQLFPEDRKLINLRAQFDQHLADSASSGGEGQLLGLLGQAATVIGGEPTVSVEQLDFSAARGDVALQVRAPGFDVLERLRSRLSESGLAVQLGSASRDGSTVSARLVIGG"}, "B2": {"name": "GspL (natural protein)", "chain": "MSGVSALFLPPASTAGADGELAVWWVQDGECRRAPFAQALAEIRAPWRLYLPVEAVTACAVNLPTQKARWLRQSLPFAVEEQLADDVEQMHLALGPALADGRHRVFAVQRTWLAAWLALAEGAGKAPASLHVDADCLPGEGSCLFWLEERWLLGGSGAVRLACGSEDWPVLRDSCPPPQRAFAAQEVAPLEGVEVQALAGNPHVWLSEQPLGTDLAQAEFAARQQSSQWRRWRPLLGLVGLWLVLQWGFTLVQAWQLQREGDRYAAQSAELYRQLFPEDRKLINLRAQFDQHLADSASSGGEGQLLGLLGQAATVIGGEPTVSVEQLDFSAARGDVALQVRAPGFDVLERLRSRLSESGLAVQLGSASRDGSTVSARLVIGG"}}, "key": {"[1]": {"biological_target": "the molecule itself", "assay": "SEC-MALS"}, "[2]": {"biological_target": "T1, GspM (P. aeruginosa, UniProt P25061 1-174)", "T1 sequence": "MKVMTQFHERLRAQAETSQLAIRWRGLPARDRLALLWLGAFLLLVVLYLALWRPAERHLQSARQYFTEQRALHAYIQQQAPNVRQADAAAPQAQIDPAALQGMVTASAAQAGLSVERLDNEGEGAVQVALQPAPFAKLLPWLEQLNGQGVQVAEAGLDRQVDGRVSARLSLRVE", "assay": "SEC-MALS"}}, "data": [{"binder": "B1", "values": [{"measurement": "stoichiometry N", "setting": "[1]", "result": 2}]}, {"binder": "B2", "values": [{"measurement": "stoichiometry N", "setting": "[2]", "result": "1 GspL per GspM (printed as 2:2)"}]}]}
